In test [1] the test system is receptors endogenously expressed in non-transfected HEK cells. Put plainly: cAMP accumulation in non-transfected HEK cells. As to conditions: increasing concentrations of ligand. Type of test: cell-based, human. The source says:
These ligands are the following: NECA (empty inverted triangles), Corticotropin releasing factor (CRF) (empty diamonds), calcitonin (full circles), isoproterenol (full triangles), UTP (full inverted triangles) and carbachol (full squares). […]

The next test addresses T1, chimeric GIPR (Homo sapiens, UniProt P48546).
T1 construct: ID; NOs; expressed in transfected cells
Description: BRET assay, specificity of the response of the chimeric GIPR (stable cell line, FP-Gγ9). The conditions noted are these: increasing concentrations of ligand. Type of test: cell-based.

In a further test the target is T2, chimeric M4R (RGLG-2) (Homo sapiens, UniProt P08173).
T2 construct: ID; NOs; expressed in transfected cells
T2 sequence (P08173 with tags, fused parts or gaps): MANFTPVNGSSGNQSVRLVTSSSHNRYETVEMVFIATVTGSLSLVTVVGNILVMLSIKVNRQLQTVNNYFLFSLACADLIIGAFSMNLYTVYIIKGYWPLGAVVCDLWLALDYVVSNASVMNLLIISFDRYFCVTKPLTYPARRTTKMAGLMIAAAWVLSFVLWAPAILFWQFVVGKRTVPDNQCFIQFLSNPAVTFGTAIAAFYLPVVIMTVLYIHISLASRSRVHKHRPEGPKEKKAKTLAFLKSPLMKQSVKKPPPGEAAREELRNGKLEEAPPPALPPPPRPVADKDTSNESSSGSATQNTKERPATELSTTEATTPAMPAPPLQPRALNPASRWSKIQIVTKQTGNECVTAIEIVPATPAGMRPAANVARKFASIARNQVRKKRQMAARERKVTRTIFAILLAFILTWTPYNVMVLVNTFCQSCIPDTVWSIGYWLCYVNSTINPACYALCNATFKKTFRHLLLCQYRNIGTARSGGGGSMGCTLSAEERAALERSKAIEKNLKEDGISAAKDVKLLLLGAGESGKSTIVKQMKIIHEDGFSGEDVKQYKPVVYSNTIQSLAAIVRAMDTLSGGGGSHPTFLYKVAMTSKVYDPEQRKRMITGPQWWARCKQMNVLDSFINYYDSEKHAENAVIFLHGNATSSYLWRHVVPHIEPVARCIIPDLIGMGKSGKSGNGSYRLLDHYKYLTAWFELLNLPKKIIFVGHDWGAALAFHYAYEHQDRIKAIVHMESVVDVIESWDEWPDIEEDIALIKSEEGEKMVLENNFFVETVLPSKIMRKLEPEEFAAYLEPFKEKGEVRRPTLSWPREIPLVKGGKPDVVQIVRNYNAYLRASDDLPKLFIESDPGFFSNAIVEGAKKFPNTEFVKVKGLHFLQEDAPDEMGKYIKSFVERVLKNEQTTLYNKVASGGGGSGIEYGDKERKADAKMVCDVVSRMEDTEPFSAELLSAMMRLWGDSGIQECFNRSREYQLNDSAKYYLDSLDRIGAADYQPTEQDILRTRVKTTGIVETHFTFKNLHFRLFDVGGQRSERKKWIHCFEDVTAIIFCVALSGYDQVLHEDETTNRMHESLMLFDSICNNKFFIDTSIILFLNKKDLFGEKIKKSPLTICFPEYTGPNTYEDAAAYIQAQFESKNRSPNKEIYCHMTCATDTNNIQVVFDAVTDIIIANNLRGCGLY
Description: BRET assay of the invention, cells co-expressing chimeric M4R (RGLG-2) and FP-Gγ9. The test is classed as cell-based. The conditions noted are these: for activation of the chimeric M4R (BRET): increasing concentrations of ligand; for Invention assay % stim / Invention assay % enh / Invention assay % inh: activity @ 30uM or 30 ug/ml, normalized to maximal effect of the orthosteric agonist; for Invention assay % stim: compound tested alone; for Invention assay % enh: in presence of EC20 value of Ach; for Invention assay % inh: in presence of EC80 of Ach. The procedure: The same cells as described for FIG. 10 A were used. […] The decrease of the signal below baseline in the PTX-treated condition confirms a constitutive activity that has been described for the M4R. […]
A typical experiment has the following sequence.
(§1) The assay of the present invention was compared with a state of the art calcium based assay. […] In calcium-based assay, a calcium flux is measured in cells co-expressing recombinant M4R and modified Gαq. In the assay in accordance with the present invention, BRET in measured in cells co-expressing a chimeric M4R according to RGLG-2 (construct and cell-line from FIG. 2C, Table 6) and FP-Gγ9 (as described in FIG. 10A). The data represent mean values and they are normalized to the maximal effect of the orthosteric agonist after the subtraction of the basal values.
In general terms: In BRET a luciferase serves as donor, and the signal depends on an acceptor being close.

The target of test [2] is human GIPR-Renilla luciferase-Gαs long fusion protein (type RLG) (human). Put plainly: cell-based or functional assay.
Sequence of human GIPR-Renilla luciferase-Gαs long fusion protein (type RLG) (human) (chain, as listed by the source limits assumed): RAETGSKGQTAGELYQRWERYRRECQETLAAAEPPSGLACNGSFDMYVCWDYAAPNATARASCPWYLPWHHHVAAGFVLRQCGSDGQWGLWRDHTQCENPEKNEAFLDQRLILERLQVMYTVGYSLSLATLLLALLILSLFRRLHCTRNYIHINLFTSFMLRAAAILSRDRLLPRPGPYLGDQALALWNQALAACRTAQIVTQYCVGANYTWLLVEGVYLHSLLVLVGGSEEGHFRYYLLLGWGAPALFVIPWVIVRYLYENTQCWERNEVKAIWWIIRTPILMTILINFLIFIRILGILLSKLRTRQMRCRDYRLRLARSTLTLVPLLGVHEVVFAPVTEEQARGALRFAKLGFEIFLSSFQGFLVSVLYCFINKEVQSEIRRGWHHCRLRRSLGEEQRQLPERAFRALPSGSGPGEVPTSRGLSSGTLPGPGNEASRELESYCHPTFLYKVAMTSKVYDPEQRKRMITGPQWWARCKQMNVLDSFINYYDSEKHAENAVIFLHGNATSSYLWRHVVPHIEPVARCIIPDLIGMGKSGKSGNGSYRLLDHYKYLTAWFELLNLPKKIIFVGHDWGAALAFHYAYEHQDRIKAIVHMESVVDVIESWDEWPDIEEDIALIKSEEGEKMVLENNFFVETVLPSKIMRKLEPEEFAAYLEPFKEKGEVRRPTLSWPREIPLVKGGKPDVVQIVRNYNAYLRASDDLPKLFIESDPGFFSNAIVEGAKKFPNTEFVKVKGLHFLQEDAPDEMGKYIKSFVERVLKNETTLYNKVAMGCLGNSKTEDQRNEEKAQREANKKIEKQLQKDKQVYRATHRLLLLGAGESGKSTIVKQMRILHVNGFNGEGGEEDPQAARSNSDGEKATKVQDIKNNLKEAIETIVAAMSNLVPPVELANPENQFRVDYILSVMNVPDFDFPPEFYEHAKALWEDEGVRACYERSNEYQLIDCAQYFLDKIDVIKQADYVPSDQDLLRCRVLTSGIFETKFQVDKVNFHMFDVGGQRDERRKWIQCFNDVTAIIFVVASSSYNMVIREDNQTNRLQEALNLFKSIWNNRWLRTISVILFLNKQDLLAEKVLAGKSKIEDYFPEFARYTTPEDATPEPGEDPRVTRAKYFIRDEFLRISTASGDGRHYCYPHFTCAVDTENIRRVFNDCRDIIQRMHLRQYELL
Test [3] concerns the target human GLP-1R-Renilla luciferase-Gαs long fusion protein (type RLG) (human). Put plainly: cell-based or functional assay.
The next test addresses T3, M4R (Homo sapiens, UniProt P08173).
T3 construct: expressed in transfected cells
T3 sequence (P08173 1-479): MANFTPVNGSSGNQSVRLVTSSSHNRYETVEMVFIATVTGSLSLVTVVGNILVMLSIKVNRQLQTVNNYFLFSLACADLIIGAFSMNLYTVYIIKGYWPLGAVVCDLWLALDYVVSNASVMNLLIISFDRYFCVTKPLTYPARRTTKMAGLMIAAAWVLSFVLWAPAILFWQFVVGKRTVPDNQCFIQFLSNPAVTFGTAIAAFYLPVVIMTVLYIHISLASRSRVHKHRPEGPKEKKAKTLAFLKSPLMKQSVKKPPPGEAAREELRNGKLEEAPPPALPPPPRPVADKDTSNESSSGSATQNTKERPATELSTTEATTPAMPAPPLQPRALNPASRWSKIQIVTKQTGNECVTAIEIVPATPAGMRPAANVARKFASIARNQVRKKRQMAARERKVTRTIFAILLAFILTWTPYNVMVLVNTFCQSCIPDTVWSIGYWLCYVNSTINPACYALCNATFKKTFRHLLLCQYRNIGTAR
Description: Calcium-based assay, calcium flux in cells co-expressing recombinant M4R and modified Gαq. The test is classed as cell-based. The conditions noted are these: activity @ 30uM or 30 ug/ml, normalized to maximal effect of the orthosteric agonist; for Calcium-based assay % stim: compound tested alone; for Calcium-based assay % enh: in presence of EC20 value of Ach; for Calcium-based assay % inh: in presence of EC80 of Ach. The protocol:
as §1

Entries after “also recorded” stand apart in the source; their conditions may differ.

Sequence of human GLP-1R-Renilla luciferase-Gαs long fusion protein (type RLG) (human) (chain, as listed by the source limits assumed): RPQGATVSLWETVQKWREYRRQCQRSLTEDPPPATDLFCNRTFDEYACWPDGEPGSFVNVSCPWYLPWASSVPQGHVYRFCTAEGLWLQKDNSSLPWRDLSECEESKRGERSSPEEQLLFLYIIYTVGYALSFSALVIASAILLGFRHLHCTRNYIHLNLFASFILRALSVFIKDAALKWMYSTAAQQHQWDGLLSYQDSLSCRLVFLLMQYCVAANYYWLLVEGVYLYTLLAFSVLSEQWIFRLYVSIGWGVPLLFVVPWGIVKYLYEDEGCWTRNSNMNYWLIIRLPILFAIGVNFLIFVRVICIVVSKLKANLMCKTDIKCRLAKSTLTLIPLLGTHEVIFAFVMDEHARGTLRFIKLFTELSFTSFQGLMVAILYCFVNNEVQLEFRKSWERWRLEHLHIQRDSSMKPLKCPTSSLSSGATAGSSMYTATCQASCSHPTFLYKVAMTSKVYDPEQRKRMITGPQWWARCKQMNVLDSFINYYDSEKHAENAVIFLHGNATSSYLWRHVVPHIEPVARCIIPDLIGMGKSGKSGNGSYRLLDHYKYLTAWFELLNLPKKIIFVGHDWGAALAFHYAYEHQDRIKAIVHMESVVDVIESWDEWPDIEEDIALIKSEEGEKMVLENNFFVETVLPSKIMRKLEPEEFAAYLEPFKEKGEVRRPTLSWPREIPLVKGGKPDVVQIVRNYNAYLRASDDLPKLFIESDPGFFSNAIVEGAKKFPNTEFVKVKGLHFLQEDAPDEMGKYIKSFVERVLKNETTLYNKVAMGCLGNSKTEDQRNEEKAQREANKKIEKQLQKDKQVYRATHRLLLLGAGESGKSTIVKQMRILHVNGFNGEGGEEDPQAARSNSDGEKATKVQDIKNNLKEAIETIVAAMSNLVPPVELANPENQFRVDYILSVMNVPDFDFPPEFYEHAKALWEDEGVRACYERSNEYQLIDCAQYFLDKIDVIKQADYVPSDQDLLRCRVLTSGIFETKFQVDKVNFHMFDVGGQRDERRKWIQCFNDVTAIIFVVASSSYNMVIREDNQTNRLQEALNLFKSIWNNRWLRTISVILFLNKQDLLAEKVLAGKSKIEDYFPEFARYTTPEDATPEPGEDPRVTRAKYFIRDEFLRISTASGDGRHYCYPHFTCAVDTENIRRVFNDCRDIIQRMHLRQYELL
Description for chimeric GIPR: 5 or 10 minutes after the addition of coelenterazine H to the cells, the read plate is placed in the FLIPR tetra and the measurement begins.
Finally, a three-addition protocol can also be run on the FLIPR tetra, containing three compound plates, of which the first one usually contains different candidate agents, the second one an agonist at its EC20 and the third one an agonist at its EC80, so that a screen for both positive and negative allosteric modulators can be run at the same time.
The camera is adjusted in such a way that the gain is set to a maximum of 28,000× and the shutters are opened 100%. The signal captured is regulated by adjusting the exposure time to 0.1 to 3 seconds ideally resulting of a signal between 30,000-60,000 RLU. The read interval (emission filter 1, emission filter 2) is adjusted to the minimal value that results from the addition of the two exposure times (=2×0.1 to 3 seconds) plus the time needed to move the filters from position 1 to position 2 (0.3 sec), resulting in a maximal read frequency of 0.5 seconds (2 Hz).
Data on FIG. 6 were obtained by applying a two-addition protocol as described above with respect to FIG. 4, with the main differences being the final concentration of coelenterazine H of 6 μM, the exposure time in both channels of 1.5 seconds and the read interval of 3.3 seconds, as well as the presence of 0.2% BSA in the HBSS++ buffer for diluting peptidic ligands. […] The effects of the ligands were read for another 180 reads. Area under curve of blue/yellow ratio from count 31 to the end of the measurement was taken for the analysis and plotted against ligand concentration for the construction of the graph in FIG. 6.

Consider `O=c1ccn([C@@H]2O[C@H](COP(=O)(O)OP(=O)(O)OP(=O)(O)O)[C@@H](O)[C@H]2O)c(=O)[nH]1` [UTP, uridine-5′-triphosphate], for which the “activation of endogenously expressed receptors, cAMP accumulation” value (from here on “activation of endogenously”) in test [1] is given as “activated; also recorded: increase in cAMP”. Further, the “activation of the chimeric GIPR (BRET)” value at chimeric GIPR is reported as “lack of activation”.
Take “CRF: Corticotropin releasing factor, ligand of a receptor endogenously expressed in HEK cells”: in the test with chimeric M4R (RGLG-2), the “activation of the chimeric M4R (BRET)” value was “lack of activation”. In addition, the “activation of endogenously” value is “increase in cAMP” in test [1] and “activated” in test [1] (listed as Corticotropin releasing factor). Besides, the “activation of the chimeric GIPR (BRET)” value with chimeric GIPR was “lack of activation”.
With `CCNC(=O)[C@H]1O[C@@H](n2cnc3c(N)ncnc32)[C@H](O)[C@@H]1O` [NECA, 5′-N-ethylcarboxamidoadenosine], at chimeric M4R (RGLG-2), the “activation of the chimeric M4R (BRET)” value is “lack of activation”. Further, the “activation of endogenously” value in test [1] was “activated; also recorded: increase in cAMP”. The “activation of the chimeric GIPR (BRET)” value on chimeric GIPR was “lack of activation”.
In test [2], “GIP (from UniProt P09681 52-93) (peptide)” registered an EC50 (GIP), BRET receptor activation; cells co-expressing FP-Gγ9 of 0.3 nM; an EC50 (GIP), BRET receptor activation; cells co-expressing FP-Gγ11 of 0.4 nM; an EC50 (GIP), BRET receptor activation; cells co-expressing FP-Gγ13 of 0.3 nM; an EC50 (GIP), BRET receptor activation; cells co-expressing Gγ5-FP of 5.5 nM. In test [2], this compound yielded an EC50 (GIP), BRET receptor activation; cells co-expressing Gγ9-FP of 1.4 nM; an EC50 (GIP), BRET receptor activation; cells co-expressing Gγ10-FP of 8.9 nM; an EC50 (GIP), BRET receptor activation; cells co-expressing Gγ11-FP of 1.6 nM; an EC50 (GIP), BRET receptor activation; cells co-expressing Gγ13-FP of 0.6 nM.
In test [3], “GLP-1 (from UniProt P01275 21-180) (peptide)” yielded an EC50 (GLP-1), BRET receptor activation; cells co-expressing FP-Gγ1 of 1.1 nM; an EC50 (GLP-1), BRET receptor activation; cells co-expressing FP-Gγ2 of 0.7 nM; an EC50 (GLP-1), BRET receptor activation; cells co-expressing FP-Gγ3 of 0.3 nM; an EC50 (GLP-1), BRET receptor activation; cells co-expressing FP-Gγ4 of 1.1 nM. Moreover, in test [3], the EC50 (GLP-1), BRET receptor activation; cells co-expressing FP-Gγ5 was found to be 0.1 nM; the EC50 (GLP-1), BRET receptor activation; cells co-expressing FP-Gγ7 worked out at 0.4 nM; the EC50 (GLP-1), BRET receptor activation; cells co-expressing FP-Gγ8 worked out at 1.4 nM; the EC50 (GLP-1), BRET receptor activation; cells co-expressing FP-Gγ9 came out at 0.4 nM. Moreover, in test [3], the EC50 (GLP-1), BRET receptor activation; cells co-expressing FP-Gγ10 amounted to 0.3 nM; the EC50 (GLP-1), BRET receptor activation; cells co-expressing FP-Gγ11 came out at 0.7 nM; the EC50 (GLP-1), BRET receptor activation; cells co-expressing FP-Gγ12 came out at 0.3 nM; the EC50 (GLP-1), BRET receptor activation; cells co-expressing FP-Gγ13 came to 0.4 nM. Further, in test [3], the EC50 (GLP-1), BRET receptor activation; cells co-expressing Gγ1-FP was 1.1 nM; the EC50 (GLP-1), BRET receptor activation; cells co-expressing Gγ2-FP worked out at 3 nM; the EC50 (GLP-1), BRET receptor activation; cells co-expressing Gγ3-FP was 1.5 nM; the EC50 (GLP-1), BRET receptor activation; cells co-expressing Gγ4-FP is 4.3 nM. In test [3], this compound had an EC50 (GLP-1), BRET receptor activation; cells co-expressing Gγ7-FP of 5.2 nM; an EC50 (GLP-1), BRET receptor activation; cells co-expressing Gγ8-FP of 2.3 nM; an EC50 (GLP-1), BRET receptor activation; cells co-expressing Gγ9-FP of 1.7 nM; an EC50 (GLP-1), BRET receptor activation; cells co-expressing Gγ10-FP of 9.2 nM. In test [3], this compound showed an EC50 (GLP-1), BRET receptor activation; cells co-expressing Gγ11-FP of 3.1 nM; an EC50 (GLP-1), BRET receptor activation; cells co-expressing Gγ12-FP of 3.1 nM; an EC50 (GLP-1), BRET receptor activation; cells co-expressing Gγ13-FP of 1 nM.
Take `NCCOB(c1ccccc1)c1ccccc1` [2-APB]: on chimeric M4R (RGLG-2), the “Invention assay % stim” value is listed as −4.7%, the “Invention assay % enh” value is reported as 6.3% and the “Invention assay % inh” value came out at 10.5%. At M4R, the “Calcium-based assay % stim” value turned out to be 3.7%, the “Calcium-based assay % enh” value is 4.8% and the “Calcium-based assay % inh” value is listed as 30.3%.
As for `Nc1c[n+](N2CCOCC2)no1.[Cl-]` [SIN-1 chloride], on chimeric M4R (RGLG-2), the “Invention assay % stim” value is listed as −1.3%, the “Invention assay % enh” value is given as 3.6% and the “Invention assay % inh” value came out at 6.6%. For the same compound, at M4R, the “Calcium-based assay % stim” value was 5.1%, the “Calcium-based assay % enh” value is recorded as 19.4% and the “Calcium-based assay % inh” value amounted to 17.1%.

The values are drawn from patent US20130035256A1, “Chimeric Polypeptides Useful in Proximal and Dynamic High-Throughput Screening Methods” (ADDEX PHARMA SA, priority 2010, published 2013).
